Source: article PMC3402478, “ADP Ribosylation by PARP-1 Suppresses HOXB7 Transcriptional Activity”

Key:
GST-HOXB7 = GST-HOXB7 (UniProt P09629 1-217); assay: EMSA; no PARP-1; competed by 100-fold unlabeled probe; EMSA: 50 mM Tris-HCl pH 7.5, 50 mM NaCl, 1 mM MgCl2, 0.5 mM DTT, 4% glycerol, 0.5 mM EDTA, 0.25 mg/ml poly(dI-dC), 20 min, gel at room temperature; ONP: 60 mM KCl, 12 mM HEPES pH 7.9, 4 mM Tris-HCl, 5% glycerol, 0.5 mM EDTA, 1 mM DTT, 4 C, 3 h; settings: protein: recombinant; tags: GST; label: 32P; blunt
GST-HOXB7, sequence (P09629 whole entry): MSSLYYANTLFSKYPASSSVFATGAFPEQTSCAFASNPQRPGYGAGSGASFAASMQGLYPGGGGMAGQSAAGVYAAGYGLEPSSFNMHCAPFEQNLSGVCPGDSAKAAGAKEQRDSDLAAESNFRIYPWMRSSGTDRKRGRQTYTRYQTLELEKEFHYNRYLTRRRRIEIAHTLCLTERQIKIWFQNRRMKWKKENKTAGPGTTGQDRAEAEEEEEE

[1] = target: PARP-1 (purified, Trevigen) (UniProt P09874 1-1014); assay: EMSA; EMSA: 50 mM Tris-HCl pH 7.5, 50 mM NaCl, 1 mM MgCl2, 0.5 mM DTT, 4% glycerol, 0.5 mM EDTA, 0.25 mg/ml poly(dI-dC), 20 min, gel at room temperature; ONP: 60 mM KCl, 12 mM HEPES pH 7.9, 4 mM Tris-HCl, 5% glycerol, 0.5 mM EDTA, 1 mM DTT, 4 C, 3 h; settings: protein: commercial; label: 32P; blunt
PARP-1 (purified, Trevigen), sequence (P09874 whole entry): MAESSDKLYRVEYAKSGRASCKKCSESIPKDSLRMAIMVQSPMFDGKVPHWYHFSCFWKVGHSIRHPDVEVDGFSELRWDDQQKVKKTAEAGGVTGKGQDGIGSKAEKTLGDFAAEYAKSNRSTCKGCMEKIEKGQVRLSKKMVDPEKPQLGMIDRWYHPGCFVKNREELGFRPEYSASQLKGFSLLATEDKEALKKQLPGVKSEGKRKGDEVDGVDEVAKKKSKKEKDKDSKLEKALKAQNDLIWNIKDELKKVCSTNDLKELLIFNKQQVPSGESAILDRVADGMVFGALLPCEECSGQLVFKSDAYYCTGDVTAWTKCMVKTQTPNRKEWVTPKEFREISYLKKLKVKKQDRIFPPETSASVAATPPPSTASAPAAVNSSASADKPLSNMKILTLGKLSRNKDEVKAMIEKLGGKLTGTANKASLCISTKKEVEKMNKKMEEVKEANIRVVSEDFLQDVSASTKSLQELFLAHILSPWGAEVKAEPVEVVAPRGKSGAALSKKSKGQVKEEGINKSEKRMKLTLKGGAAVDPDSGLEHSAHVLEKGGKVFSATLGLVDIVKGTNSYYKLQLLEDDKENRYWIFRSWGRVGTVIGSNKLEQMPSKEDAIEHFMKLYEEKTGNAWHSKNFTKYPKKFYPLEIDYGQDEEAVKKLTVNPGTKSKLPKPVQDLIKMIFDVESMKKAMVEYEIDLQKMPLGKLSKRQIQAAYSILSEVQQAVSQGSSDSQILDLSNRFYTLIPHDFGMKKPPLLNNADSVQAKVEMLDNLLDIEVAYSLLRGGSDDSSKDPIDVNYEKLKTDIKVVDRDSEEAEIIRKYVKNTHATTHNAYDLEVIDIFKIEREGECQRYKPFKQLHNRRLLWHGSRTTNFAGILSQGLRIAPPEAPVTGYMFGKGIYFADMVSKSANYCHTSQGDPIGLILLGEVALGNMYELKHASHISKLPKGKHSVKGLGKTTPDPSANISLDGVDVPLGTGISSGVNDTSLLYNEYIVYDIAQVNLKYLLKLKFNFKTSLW

B1: HBS EMSA probe (dsDNA)
DNA 1: AAATATCAATTAAATCTTAATTATAA
DNA 2: TTATAATTAAGATTTAATTGATATTT
Q: Does B1 bind (GST-HOXB7)?
A: binds

Q: Does B1 bind [1]?
A: no binding
